Experimental data taken from patent publication US20200297760A1, “COMPOSITIONS AND METHODS FOR REDUCING IMMUNE RESPONSES AGAINST CHIMERIC ANTIGEN RECEPTORS” (Juno Therapeutics, Inc., priority 2015, published 2020).

Tests used:
Details in all cases: remark: other sources report otherwise
[1] = target: HLA-A*02:01 (human); experiment: REVEAL MHC-peptide binding assay, recombinant HLA
[2] = target: HLA-A*11:01 (recombinant MHC class I molecule) (human); experiment: REVEAL MHC-peptide binding assay, recombinant HLA-A*11:01
[3] = target: HLA-B*08:01 (recombinant MHC class I molecule) (human); experiment: REVEAL MHC-peptide binding assay, recombinant HLA-B*08:01
[4] = target: HLA-A*03:01 (human); experiment: REVEAL MHC-peptide binding assay, recombinant HLA

Row | Binder | In Vitro Score (% of positive control peptide) [1] | In Vitro Score (score, % of positive control peptide) [2] | In Vitro Score (score, % of positive control peptide) [3] | In Vitro Score (% of positive control peptide) [4]
1 | IFWVKRGNK […, listing 1 of 2 here] | 3.5 |  |  | 
2 | IFWVKRGNK [Synthetic peptide …, listing 2 of 2 here] |  | 45.9 | 0.1 | 
3 | WVKRGNKKL […, listing 1 of 2 here] | 2.4 |  |  | 0.9
4 | IIFWVARGR [Synthetic peptide …, listing 1 of 2 here] |  | 70.6 | 0.3 | 
5 | AFIIFWVAR |  | 51.8 | 0.2 | 
6 | WVQRGRKKL [Synthetic peptide …, listing 1 of 2 here] |  | 12.8 | 45.1 | 
7 | IFWVKRGLK |  | 61.1 | 58.3 | 
8 | IIFWVLRGR […, listing 1 of 2 here] |  |  |  | 2.8
9 | WVQRGNKKL […, listing 1 of 2 here] | 4.3 |  |  | 1.5
10 | VAFIIFWVK [Synthetic peptide …, listing 1 of 2 here] |  | 109 | 0.3 | 
11 | IIFWVLRGR [Synthetic peptide …, listing 2 of 2 here] |  | 35.2 | 0.4 | 
12 | FIIFWVHRG |  | 0.9 | 0.2 | 
13 | IFWVKRGAK […, listing 2 of 2 here] | 13.8 |  |  | 22
14 | IIFWVKRGR |  | 54.5 | 0 | 
15 | WVARGRKKL […, listing 1 of 2 here] |  |  |  | 1.3
16 | IIFWVKRGA […, listing 1 of 2 here] | 85.9 |  |  | 42.9
17 | IIFWVQRGA […, listing 1 of 2 here] | 95.3 |  |  | 2.7
18 | IIFWVQRGR |  | 72.8 | 0.1 | 
19 | IIFWVHRGR |  | 77.5 | 0.2 | 
20 | IFWVKRGHK […, listing 2 of 2 here] | 2.2 |  |  | 
21 | IFWVQRGAK [Synthetic peptide …, listing 2 of 2 here] |  | 61.3 | 0.2 | 
22 | IFWVARGRK |  | 34.9 | 0 | 
23 | WVKRGHKKL […, listing 2 of 2 here] | 3.9 |  |  | 1.4
24 | WVARGRKKL [Synthetic peptide …, listing 2 of 2 here] |  | 13.8 | 32.4 | 
25 | WVQRGNKKL [Synthetic peptide …, listing 2 of 2 here] |  | 10.7 | 32 | 
26 | AFIIFWVSR |  | 54 | 0.3 | 
27 | WVKRGNKKL [Synthetic peptide …, listing 2 of 2 here] |  | 4.1 | 65.9 | 
28 | IFWVQRGNK [Synthetic peptide …, listing 2 of 2 here] |  | 67.5 | 0.1 | 
29 | IFWVKRGSK |  | 47.9 | 1.2 | 
30 | WVKRGSKKL |  | 11.8 | 56.1 | 

Now from value to binder:

Row | In Vitro Score (% of positive control peptide) [1] | In Vitro Score (score, % of positive control peptide) [2] | In Vitro Score (score, % of positive control peptide) [3] | In Vitro Score (% of positive control peptide) [4] | Binder
31 |  |  |  | 4.3 | IIFWVKRGN […, listing 1 of 2 here]
32 |  | 4.6 | 34.1 |  | WVKRGAKKL [Synthetic peptide …, listing 1 of 2 here]
33 |  | 69.7 | 2.2 |  | IFWVKRGAK [Synthetic peptide …, listing 1 of 2 here]
34 | 11.7 |  |  | 17 | IFWVQRGAK […, listing 1 of 2 here]
35 |  | 30.9 | 3.2 |  | IFWVKRGHK [Synthetic peptide …, listing 1 of 2 here]
36 |  | 2.8 | 47.6 |  | WVKRGHKKL [Synthetic peptide …, listing 1 of 2 here]
37 |  | 128 | 0 |  | IFWVQRGRK
38 |  | 39.2 | 0 |  | IFWVSRGRK
39 |  | 34.9 | 0.3 |  | AFIIFWVHR
40 | 4.7 |  |  | 4.1 | WVKRGAKKL […, listing 2 of 2 here]
41 |  |  |  | 4.9 | WVQRGRKKL […, listing 2 of 2 here]
42 | 70.6 |  |  | 0.7 | VAFIIFWVS […, listing 1 of 2 here]
43 |  |  |  | 18.6 | IIFWVARGR […, listing 2 of 2 here]
44 |  | 36.6 | 0.1 |  | IFWVHRGRK
45 |  | 25.1 | 0.1 |  | VAFIIFWVS [Synthetic peptide …, listing 2 of 2 here]
46 | 16.1 |  |  | 23.2 | IFWVQRGNK […, listing 1 of 2 here]
47 |  | 32.4 | 1.7 |  | IIFWVKRGL
48 | 0.7 |  |  | 1.5 | VAFIIFWVK […, listing 2 of 2 here]
49 |  | 42.1 | 0.9 |  | IIFWVKRGN [Synthetic peptide …, listing 2 of 2 here]
50 |  |  | 0.4 |  | IIFWVKRGS
51 |  | 68.9 | 0 |  | IIFWVSRGR
52 |  | 22.6 | 0.9 |  | IIFWVKRGA [Synthetic peptide …, listing 2 of 2 here]
53 |  | 56.5 | 0.2 |  | IIFWVQRGA [Synthetic peptide …, listing 2 of 2 here]
